Assay results published in patent US20260275311, “CRISPR NUCLEASE POLYPEPTIDES AND GENE EDITING SYSTEMS COMPRISING SUCH” (ARBOR BIOTECHNOLOGIES, INC., published 2026).

T1: Nuclease A I67R/D568R/E706R
T1 chain: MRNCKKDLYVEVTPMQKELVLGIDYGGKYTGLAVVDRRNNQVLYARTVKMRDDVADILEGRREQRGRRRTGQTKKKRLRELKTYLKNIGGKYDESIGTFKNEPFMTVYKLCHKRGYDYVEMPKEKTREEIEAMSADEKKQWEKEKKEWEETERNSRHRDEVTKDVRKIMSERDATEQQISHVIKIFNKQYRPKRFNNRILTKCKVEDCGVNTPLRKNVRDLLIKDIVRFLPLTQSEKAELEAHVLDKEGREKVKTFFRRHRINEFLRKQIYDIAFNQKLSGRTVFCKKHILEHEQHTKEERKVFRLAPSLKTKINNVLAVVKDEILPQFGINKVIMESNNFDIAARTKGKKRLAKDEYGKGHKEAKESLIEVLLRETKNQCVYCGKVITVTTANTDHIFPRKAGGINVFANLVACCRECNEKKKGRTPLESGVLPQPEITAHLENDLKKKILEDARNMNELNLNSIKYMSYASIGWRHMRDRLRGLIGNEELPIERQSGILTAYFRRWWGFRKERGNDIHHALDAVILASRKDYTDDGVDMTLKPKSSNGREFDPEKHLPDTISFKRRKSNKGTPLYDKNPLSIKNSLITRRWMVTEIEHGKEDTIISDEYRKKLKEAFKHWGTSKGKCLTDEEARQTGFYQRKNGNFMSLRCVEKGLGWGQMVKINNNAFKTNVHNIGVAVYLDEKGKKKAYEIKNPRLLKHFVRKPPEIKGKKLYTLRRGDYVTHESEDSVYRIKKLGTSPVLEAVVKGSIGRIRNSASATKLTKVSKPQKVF

T2: Nuclease A
T2 chain: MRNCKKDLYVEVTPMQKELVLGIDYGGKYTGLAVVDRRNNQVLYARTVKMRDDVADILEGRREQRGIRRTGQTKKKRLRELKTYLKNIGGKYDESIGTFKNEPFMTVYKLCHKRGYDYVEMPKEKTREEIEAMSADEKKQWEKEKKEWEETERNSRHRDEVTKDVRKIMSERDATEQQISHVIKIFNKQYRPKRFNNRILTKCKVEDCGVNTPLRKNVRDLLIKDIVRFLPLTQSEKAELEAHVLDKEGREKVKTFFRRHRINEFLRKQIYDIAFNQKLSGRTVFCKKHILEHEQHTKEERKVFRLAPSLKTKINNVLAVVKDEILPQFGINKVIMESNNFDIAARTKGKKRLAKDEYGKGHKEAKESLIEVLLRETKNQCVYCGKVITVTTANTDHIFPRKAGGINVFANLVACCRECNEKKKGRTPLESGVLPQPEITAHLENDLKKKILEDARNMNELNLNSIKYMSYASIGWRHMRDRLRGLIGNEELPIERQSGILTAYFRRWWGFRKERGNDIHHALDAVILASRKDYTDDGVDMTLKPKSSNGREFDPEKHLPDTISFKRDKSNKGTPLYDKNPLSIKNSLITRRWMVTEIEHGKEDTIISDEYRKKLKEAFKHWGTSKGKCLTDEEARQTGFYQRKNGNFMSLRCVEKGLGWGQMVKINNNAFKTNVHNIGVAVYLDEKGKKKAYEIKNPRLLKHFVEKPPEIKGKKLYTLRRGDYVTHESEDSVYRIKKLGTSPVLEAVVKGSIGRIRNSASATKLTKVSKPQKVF

T3: Nuclease A I67R (I67R)
T3 chain: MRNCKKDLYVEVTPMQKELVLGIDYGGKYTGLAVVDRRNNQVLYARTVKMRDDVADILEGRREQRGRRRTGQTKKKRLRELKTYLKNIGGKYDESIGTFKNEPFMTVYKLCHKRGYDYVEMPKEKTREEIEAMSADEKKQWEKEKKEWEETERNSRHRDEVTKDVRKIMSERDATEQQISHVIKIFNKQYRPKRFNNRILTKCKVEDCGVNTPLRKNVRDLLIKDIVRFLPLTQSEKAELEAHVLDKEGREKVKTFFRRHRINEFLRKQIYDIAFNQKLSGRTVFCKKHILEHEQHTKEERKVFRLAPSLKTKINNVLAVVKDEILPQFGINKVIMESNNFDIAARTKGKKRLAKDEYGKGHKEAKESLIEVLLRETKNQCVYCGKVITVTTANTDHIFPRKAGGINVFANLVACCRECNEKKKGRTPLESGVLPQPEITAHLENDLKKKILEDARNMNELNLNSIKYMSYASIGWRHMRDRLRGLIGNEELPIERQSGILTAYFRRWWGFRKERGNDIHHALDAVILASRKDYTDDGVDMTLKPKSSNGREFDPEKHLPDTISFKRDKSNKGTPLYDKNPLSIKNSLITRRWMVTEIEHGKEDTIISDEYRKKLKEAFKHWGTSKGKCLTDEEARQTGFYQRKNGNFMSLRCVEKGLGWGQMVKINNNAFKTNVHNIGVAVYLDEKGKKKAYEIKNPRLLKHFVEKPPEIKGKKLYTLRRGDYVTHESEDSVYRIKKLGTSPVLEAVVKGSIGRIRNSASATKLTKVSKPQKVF

B1: Nuclease A AAVS1-T3 guide ; AAVS1-T3 target (ssRNA ; dsDNA)
RNA: UUGUGAGAAUGGUGCGUCCUGUUACAGUUAAGGCUCUUUGGAAACAAAGAAGCCUUAAUUGUAAAACGCCUAUAUGGUAAAGUGAUGUACGUUUGGGUAUAUAUCGCCAGCCUGAACCUCUACGCCAGAAAUGGCAGCUUUAUCAUGGGUUAGGACGAUAUUUAAAAAACUUUCUGCGGCUUGCUUACUUUAGUAAGCUUUGUGGCUGAGGCAGAAUUCCUU
DNA 1: TTGTGAGAATGGTGCGTCCT
DNA 2: AGGACGCACCATTCTCACAA
B2: Nuclease A VEGFA-T6 guide ; VEGFA-T6 target (ssRNA ; dsDNA)
RNA: UUUGCCCAUACUGGGGACCAGUUACAGUUAAGGCUCUUUGGAAACAAAGAAGCCUUAAUUGUAAAACGCCUAUAUGGUAAAGUGAUGUACGUUUGGGUAUAUAUCGCCAGCCUGAACCUCUACGCCAGAAAUGGCAGCUUUAUCAUGGGUUAGGACGAUAUUUAAAAAACUUUCUGCGGCUUGCUUACUUUAGUAAGCUUUGUGGCUGAGGCAGAAUUCCUU
DNA 1: TTTGCCCATACTGGGGACCA
DNA 2: TGGTCCCCAGTATGGGCAAA

Legend:
Conditions in all cases: tags: N-terminal SV40 NLS, C-terminal XTEN linker + nucleoplasmin NLS
[1] = molecular target: T1, Nuclease A I67R/D568R/E706R; assay: cell_activity; PAM NGG (AGG); HEK293T
Procedure: (§1) Approximately 16 hours prior to transfection, 25,000 HEK293T cells in DMEM/10% FBS+Pen/Strep (D10 media) were plated into each well of a 96-well plate. On the day of transfection, the cells were 50-90% confluent. For each well to be transfected, a mixture of Lipofectamine 2000™ (ThermoFisher Scientific) and Opti-MEM™ (ThermoFisher Scientific) was prepared and incubated at room temperature for 5 minutes (Solution 1). After incubation, the Lipofectamine 2000™: Opti-MEM™ mixture was added to a separate mixture containing the CRISPR nuclease plasmid (NLS-tagged), RNA guide plasmid, and Opti-MEM™ (Solution 2). In the case of negative controls, the CRISPR nuclease plasmid was excluded. Solutions 1 and 2 were mixed by pipetting up and down, then incubated at room temperature for 25 minutes. Following incubation, the Solution 1 and 2 mixture was added dropwise to each well of a 96-well plate containing the cells. Approximately 72 hours post transfection, cells were trypsinized by adding TrypLE™ (ThermoFisher Scientific) to the center of each well and incubating at 37° C. for approximately 5 minutes. D10 media was then added to each well and mixed to resuspend cells. The resuspended cells were centrifuged for 10 minutes to obtain a pellet, and the supernatant was discarded. The cell pellet was then resuspended in QuickExtract™ buffer (Lucigen®), and cells were incubated at 65° C. for 15 minutes, 68° C. for 15 minutes, and 98° C. for 10 minutes.
(§2) Each Nuclease A variant and RNA guide (see Table 5) was cloned as described in Example 2. HEK293T cells were further transfected, followed by NGS analysis, as described in Example 2. For each target, indel ratios, referring to the percentage of NGS reads comprising indels, were calculated for Nuclease A (SEQ ID NO: 1) and for each variant of Nuclease A. The indel ratios shown in Table 6 were calculated as the average of two bioreplicates, each of which contained two technical replicates.

Nuclease A = molecular target: T2, Nuclease A; assay: cell_activity; PAM NGG (AGG); HEK293T
Procedure: as §1, §2

Nuclease A I67R = molecular target: T3, Nuclease A I67R; assay: cell_activity; PAM NGG; HEK293T

Binder	activity [1] [indel ratio]	activity (Nuclease A) [indel ratio]	binding signal (Nuclease A I67R) [fold vs Nuclease A]
B1	0.37	0.044	7.07
B2	0.325	0.049	4.43
